For this experiment, the target named is Fzd4 (Homo sapiens (Human)) (UniProt Q9ULV1). Briefly: cell-based or functional assay.
Sequence of UniProt Q9ULV1 (Q9ULV1 37-537 limits assumed, form in doubt): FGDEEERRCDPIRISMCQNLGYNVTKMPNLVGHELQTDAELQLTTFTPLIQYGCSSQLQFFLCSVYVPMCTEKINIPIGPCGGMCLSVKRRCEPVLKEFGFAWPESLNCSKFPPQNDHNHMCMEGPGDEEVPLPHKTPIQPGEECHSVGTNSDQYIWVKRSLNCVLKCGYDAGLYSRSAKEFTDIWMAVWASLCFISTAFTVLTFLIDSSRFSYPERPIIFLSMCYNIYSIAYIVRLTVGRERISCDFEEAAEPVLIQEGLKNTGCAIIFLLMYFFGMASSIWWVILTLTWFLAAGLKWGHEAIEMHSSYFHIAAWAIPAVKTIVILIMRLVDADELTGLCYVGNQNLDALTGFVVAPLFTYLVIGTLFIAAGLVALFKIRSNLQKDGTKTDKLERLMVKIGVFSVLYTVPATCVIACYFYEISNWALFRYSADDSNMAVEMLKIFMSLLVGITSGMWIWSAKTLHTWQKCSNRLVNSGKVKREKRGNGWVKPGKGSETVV

With recombinant Norrin (ligand), the Topflash reporter activity (firefly divided by renilla), cells overexpressing TSPAN12 against control cells, 10 nM recombinant Norrin came out at 4 fold.

The values are drawn from patent US20150093375A1.
